{"source": "patent US20060286609A1", "about": "(BIOCHECK, published 2006)", "molecules": {"B1": {"name": "rabbit monoclonal anti-mouse Id1, clone #BCH-1/#37-2 (antibody, V domains shown)", "VH": "QSVEESGGRLVTPGTPLTLTCKVSGFDINSYAMDWFRQAPGKGLEWIGMMSTRGNTYYTSWAKGRFTISKTSSTTVDLKMTSLTTEDTATYFCARGGLWGPGTLVTVSS", "VL": "RVLTQTASPVSAAVGGTVTINCQASQSVYNGNRLGWYQLKPGQSPKELIHDASTLASGVPSRFRGSGSGTQFTLTINDVQCDDAATYYCVGSYACSTGDCNVFGGGTEVVVK", "notes": "Rabbit IgG from hybridoma, Protein G purified; also called m Id1 MoAb 37-2; Rabbit Monoclonal Anti-Mouse Id1 (#37-2)"}}, "key": {"[1]": {"biological_target": "Human Id1: Histidine (human) (UniProt P41134)", "sequence (P41134 whole entry)": "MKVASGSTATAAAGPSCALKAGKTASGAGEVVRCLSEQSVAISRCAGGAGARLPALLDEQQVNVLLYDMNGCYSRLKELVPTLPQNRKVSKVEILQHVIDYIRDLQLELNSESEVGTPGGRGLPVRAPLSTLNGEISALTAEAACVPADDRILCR", "assay": "sandwich ELISA, 5-3-coated wells, human Id1:His 2.5 ng/ml, detected with rabbit polyclonal B-5133-HRP"}, "[2]": {"biological_target": "Human Id1: Histidine (human) (UniProt P41134)", "assay": "sandwich ELISA, 5-3-coated wells, human Id1:His 50.0 ng/ml, detected with rabbit polyclonal B-5133-HRP"}, "[3]": {"biological_target": "Human Id1: Histidine (human) (UniProt P41134)", "assay": "sandwich ELISA, 5-3-coated wells, human Id1:His 25.0 ng/ml, detected with rabbit polyclonal B-5133-HRP"}, "Mouse Id2: Histidine": {"biological_target": "T1, Mouse Id2: Histidine (mouse, UniProt P41136 1-134, limits assumed)", "T1 construct": "E. coli fusion protein (vector pGW07); also called m-Id2: His; not shown: His-tag", "T1 sequence (looked up)": "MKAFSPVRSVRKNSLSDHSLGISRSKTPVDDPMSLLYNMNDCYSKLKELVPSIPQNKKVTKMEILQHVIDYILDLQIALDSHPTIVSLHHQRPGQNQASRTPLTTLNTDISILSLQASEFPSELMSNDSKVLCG", "assay": "ELISA, coated antigen; relative to human Id1"}, "Mouse Id3: Histidine": {"biological_target": "T2, Mouse Id3: Histidine (mouse, UniProt P41133 1-119, limits assumed)", "T2 construct": "E. coli fusion protein (vector pGW07); also called m-Id3: His; not shown: His-tag", "T2 sequence (looked up)": "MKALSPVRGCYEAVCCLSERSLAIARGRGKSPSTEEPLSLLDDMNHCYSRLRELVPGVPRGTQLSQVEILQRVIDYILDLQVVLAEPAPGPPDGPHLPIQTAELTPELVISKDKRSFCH", "assay": "ELISA, coated antigen; relative to human Id1"}, "Human Id2: Histidine": {"biological_target": "T3, Human Id2: Histidine (human, UniProt Q02363 1-134, limits assumed)", "T3 construct": "E. coli fusion protein (vector pGW07); also called h-Id2: His; not shown: His-tag", "T3 sequence (looked up)": "T1 sequence (looked up) with T60S, V131A", "assay": "ELISA, coated antigen; relative to human Id1"}, "Human Id3: Histidine": {"biological_target": "T4, Human Id3: Histidine (human, UniProt Q02535 1-119, limits assumed)", "T4 construct": "E. coli fusion protein (vector pGW07); also called h-Id3: His; not shown: His-tag", "T4 sequence (looked up)": "T2 sequence (looked up) with S31G, S33A, T34A, K112N", "assay": "ELISA, coated antigen; relative to human Id1"}, "Human Id4: Histidine": {"biological_target": "T5, Human Id4: Histidine (human, UniProt P47928 1-161, limits assumed)", "T5 construct": "E. coli fusion protein (vector pGW07); also called h-Id4: His; not shown: His-tag", "T5 sequence (looked up)": "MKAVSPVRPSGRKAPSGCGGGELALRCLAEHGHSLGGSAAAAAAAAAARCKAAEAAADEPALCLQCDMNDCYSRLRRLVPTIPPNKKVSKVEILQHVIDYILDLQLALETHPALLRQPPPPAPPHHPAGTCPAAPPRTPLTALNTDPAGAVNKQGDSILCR", "assay": "ELISA, coated antigen; relative to human Id1"}, "Mouse Id1: Histidine": {"biological_target": "T6, Mouse Id1: Histidine (mouse, UniProt P20067-2 1-148)", "T6 construct": "E. coli fusion protein (vector pGW07); also called m-Id1-His; not shown: His-tag", "T6 sequence": "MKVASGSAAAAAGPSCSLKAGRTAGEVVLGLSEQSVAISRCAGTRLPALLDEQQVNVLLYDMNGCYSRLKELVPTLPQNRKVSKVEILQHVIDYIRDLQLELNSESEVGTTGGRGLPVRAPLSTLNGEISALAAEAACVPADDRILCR", "assay": "ELISA, coated antigen; relative to human Id1"}, "Mouse Id4: Histidine": {"biological_target": "T7, Mouse Id4: Histidine (mouse, UniProt P41139 1-161, limits assumed)", "T7 construct": "E. coli fusion protein (vector pGW07); also called m-Id4: His; not shown: His-tag", "T7 sequence (looked up)": "T5 sequence (looked up) with H125L, T130A, A133V", "assay": "ELISA, coated antigen; relative to human Id1"}, "[4]": {"biological_target": "Human Id1: Histidine (human) (UniProt P41134)", "assay": "ELISA, coated antigen, Ab 5.00 ug/ml"}}, "note": "Substitutions are numbered along the chain they refer to."}
{"molecule": "rabbit monoclonal anti-human Id1, clone #BCH-2/#5-3 (antibody)", "values": [{"measurement": "A450", "setting": "[1]", "result": 0.244, "unit": "A450"}, {"measurement": "A450", "setting": "[2]", "result": 3.15, "unit": "A450"}, {"measurement": "A450", "setting": "[3]", "result": 1.94, "unit": "A450"}, {"measurement": "Cross-reactivity (%)", "setting": "Mouse Id2: Histidine", "result": "< 1", "unit": "%"}, {"measurement": "Cross-reactivity (%)", "setting": "Mouse Id3: Histidine", "result": "< 1", "unit": "%"}, {"measurement": "Cross-reactivity (%)", "setting": "Human Id2: Histidine", "result": "< 1", "unit": "%"}, {"measurement": "Cross-reactivity (%)", "setting": "Human Id3: Histidine", "result": "< 1", "unit": "%"}, {"measurement": "Cross-reactivity (%)", "setting": "Human Id4: Histidine", "result": "< 1", "unit": "%"}, {"measurement": "Cross-reactivity (%)", "setting": "Mouse Id1: Histidine", "result": "< 1", "unit": "%"}, {"measurement": "Cross-reactivity (%)", "setting": "Mouse Id4: Histidine", "result": "< 1", "unit": "%"}]}
{"molecule": "B1", "values": [{"measurement": "A450", "setting": "[4]", "result": 0.153, "unit": "A450"}]}
